Laboratory results as given in the nanobody polyreactivity screen of Harvey et al. (2022).

Assay: yeast display, Sf9 membrane polyspecificity reagent, FACS + sequencing; frameworks hold sequencing errors
Outline: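 Galactose-induced (36–48 hours) yeast carrying a synthetic nanobody display library were exposed to 10% biotinylated, detergent-solubilized Sf9 membrane reagent at 4 °C for 1 hour. FACS followed streptavidin microbead enrichment, using low and high (top ~1%) gates for expression (anti-HA) and reagent binding (streptavidin). Colony PCR, MiSeq 2 × 250 sequencing and CDR-length filtering followed. Labels for polyreactivity reflect the gate of origin.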

Sequence	polyreactivity (PSR sort gate)
QVQLVESGGGLVQAGGSLRLSCAASGRIFSYNAMGWYRQAPGKERELVAGITSGGRTYYADSVKGRFTISRDNAKNTVYLQMNSLKPEDTAVHYCAASYVPARTRYYYWGQGTQVTVSS	high polyreactivity
QVQLVESGGGLVQAGGSLRLSCAASGRIFSYNTMGWYRQAPGKERELVAAISWSGGSTSYADSVKGRFTISRDNAKNTVYLQMNSLKPEDTAVYYCATGSKRNPFYRGNYWGQGTQVTVSS	low polyreactivity
QVQLVESGGGLVQAGGSLRLSCAASGRIFSYTAMGWYRQAPGKERELVAAITRVDNTNYADSVKGRFTISRDNAKNTVYLQMNSLKPEDTAVYYCNARQHQVRWWLREFDYWGQGTQVTVSS	low polyreactivity
QVQLVESGGGLVQAGGSLRLSCAASGRIFSYTARGWSRQAPGKERELVAAISGSTGNTYYADSVKGRFTISRDNAKTTLYLQMNSLKPEDTAVYYCNKLGYKYDYWGQGTQVTVSS	high polyreactivity
QVQLVESGGGLVQAGGSLRLSCAASGRIFSYYAMGWYRQAPGKERELVAAITSGGSTYYADSVKGRFTISRDNAKNTVYLQMNSLKPEDTAVYYCNVVSDFRYYYWGQGTQVTVSS	low polyreactivity
QVQLVESGGGLVQAGGSLRLSCAASGRIFSYYAMGWYRQAPGKERELVARISWRGGSTYYADSVKGRFTISRDNSKNTVYLQMNSLKPEDSAVYYCAATSPYYRTGYDYWGQGTQVTVSS	high polyreactivity
QVQLVESGGGLVQAGGSLRLSCAASGRIFSYYAMGWYRQAPGKERELVASISRSGGSTYYANSVKGRFTISRDNAKNTVYLQMNSLKPEDTAVYYCNAEARYTGFAYSYFNSDYWGQGTQVTVSS	low polyreactivity
QVQLVESGGGLVQAGGSLRLSCAASGRIFSYYAMGWYRQAPGKERELVATINSGGSTNYADSVKGRFTISRDNAKNTVYLQMNSLKPEDTAVYYCAASPVWWYDYWGQGTQVTVSS	low polyreactivity
QVQLVESGGGLVQAGGSLRLSCAASGRIFSYYAMGWYRQAPGKERELVAVISRRGDNTYYADSVKGRFTISRDNAKNTVYLQMNSLKPEDTAVYYCAAYSWYAKDFDYWGQGTQVTVSS	high polyreactivity
QVQLVESGGGLVQAGGSLRLSCAASGRIFSYYAMGWYRQAPRKERELVAAITWSGGSTYYADSVKGRFTISRDNAKNTVYLQMNSLKPEDTAVYYCAADRRRWLYYGYDYWGQGTQVTVSS	high polyreactivity
QVQLVESGGGLVQAGGSLRLSCAASGRIFSYYTMGWYRQAPGKERELVAAITGSGGTTYYADSVKGRFTISRDNAKNTVYLQMNSLKPEDTAVYYCAARGYYRWAPYADWRFNYWGQGTQVTVSS	high polyreactivity
QVQLVESGGGLVQAGGSLRLSCAASGRIFTANVMGWYRQAPGKERELVAAIDYSGGSTYYADSVKGRFTISRDNAKNTVYLQMNSLKPEDTAVYYCNRDDYADYYHLEYDYWGQGTQVTVSS	low polyreactivity
QVQLVESGGGLVQAGGSLRLSCAASGRIFTAYAMGWYRQAPGKERELVAAISSGDSTYYADSVKGRFTISRDNAKNTVSLQMNSLKPEDTAVYYCATGVYPDFEYDSWGQGTQVTVSS	low polyreactivity
QVQLVESGGGLVQAGGSLRLSCAASGRIFTDYTMGWYRQAPGKERELVAAISYSGGSTYYADSVKGRFTISRDNAKNSVYLQMNSLKPEDTAVYYCNRDPQKYRWIPRYDYWGHGTQVTVSS	low polyreactivity
QVQLVESGGGLVQAGGSLRLSCAASGRIFTFYAMGWYRQAPGKERELVAAISSGGSTYYADSVKGRFTISRDNAKNTVYLQMHSLKPEDTAVYYCAAEPVWYADYDYWGQGTQVTVSS	low polyreactivity
QVQLVESGGGLVQAGGSLRLSCAASGRIFTFYAMGWYRQAPGKERELVAAITSGGSTYYADSVKGRFTISRDNAKNTVYLQMNSLKPEDTAVYYCNALHHTQHDYWGQGTQVTVSS	low polyreactivity
QVQLVESGGGLVQAGGSLRLSCAASGRIFTFYAMGWYRQAPGKERELVARISKRGGSTYYADSVKGRFTISRDYAKNTVYLQRNSLKPEDTAVYYCAKAYDPTTYDYWGQGTQVTVSS	high polyreactivity
QVQLVESGGGLVQAGGSLRLSCAASGRIFTGNAMGWYRQAPGKERELVAAISRRGTRTYYADSVKGRFTISRDNAKNTVYLQMNSLKPEDTAVYYCATVLYKAYNDYGYWGQGTQVTVSS	high polyreactivity
QVQLVESGGGLVQAGGSLRLSCAASGRIFTHNAMGGYRQAPGKERELVAAITIGGRTNYADSVKGRFTISRDNAKYTVYLQMNSLKPEDTAVYYCDRRYGTWNAYDYWGQGTLVTVSS	low polyreactivity
QVQLVESGGGLVQAGGSLRLSCAASGRIFTHNAMGWYRQAPGKERELVAAITSGGRTTYADSVKGRFTISRDNAKNTVYLQRNSLKPEDTAVYYCNADTGLGSLDFDKRDYWGQGTQVTVSS	low polyreactivity
QVQLVESGGGLVQAGGSLRLSCAASGRIFTKYAMGWYRQAPGKERELVATISKRSGSTYYADSVKGRFTISRDNAKNTVYLQMNSLKPEDTAVYYCARTVGYRTLLESDSWGQGTQVTVSS	high polyreactivity

Sequence	polyreactivity (PSR sort gate)
QVQLVESGGGLVQAGGSLRLSCAASGRIFTNYAMGWYRQAPGKERELVAAINWDGGSTYYADSVKGRFTISRDNAKNTVYLQMNSLKPVDTAVYYCAAQGGLSEYDYWGQGTQVTVSS	low polyreactivity
QVQLVESGGGLVQAGGSLRLSCAASGRIFTRNAMGWCRPAPGKERELVAAITYTGANTYYADSVKGRFTISRDNAKNTVYLQMNSLKPEDTAVYYCAADGRVKGWGQGTQVTVSS	high polyreactivity
QVQLVESGGGLVQAGGSLRLSCAASGRIFTRYAMGWSRQAPGKERELVAAISSGGSTYYADSVKGRYTISRDKAKNTVYLQMNSLKPEDTAVYYCAAGTWWWYKFNYWGQGTQVTVSS	high polyreactivity
QVQLVESGGGLVQAGGSLRLSCAASGRIFTRYAMGWYCQAPGNDRELVAVIRDGSTYYADSVKGRFTISRDNGKNTVYLQMNSLKPEDTAVYYCRYDIWDWWSGAYDYWGQGTQVTVSS	low polyreactivity
QVQLVESGGGLVQAGGSLRLSCAASGRIFTRYAMGWYRQAPGKARELVAAITSSGGRTYYADSVKGRFTISRDNAKNTVYLQMNSLKQEDTAVYYCATGYINSYYYWGQGTQVTVSS	high polyreactivity
QVQLVESGGGLVQAGGSLRLSCAASGRIFTRYTMGWYRQAPGKDRELVAAITRGGSTYYADSVKGRFTISRDNANNTVYLQMNSLKPEDTAVYYCATQVWGGRYNYWGQGTQVTVTS	high polyreactivity
QVQLVESGGGLVQAGGSLRLSCAASGRIFTRYTMGWYRQAPGKERELVAAISSSDSSTYYADSVKGRFTISRDNAKNTVYLQMNSLKPEDTAVYYCNADRLFYEIYDYGAVRIGYDYWGQGTQVTVSS	low polyreactivity
QVQLVESGGGLVQAGGSLRLSCAASGRIFTSNAMGWYRQAPGKERELVAAISGSGGRTYYADSVKGRFTISRDNAKNTVYLQMNSLKPEDTAVYYCAVGTRVKYDYWGQGTQVTVSS	high polyreactivity
QVQLVESGGGLVQAGGSLRLSCAASGRIFTSNAMGWYRQAPGKERELVAAISSSSGSTYYADSVKGRFTISRDNAKNTVSLQMNSLKPEDTAVYYCAARTWRVSGTYKYDYWGQGTQVTVSS	low polyreactivity
QVQLVESGGGLVQAGGSLRLSCAASGRIFTSNTMGWYRQAAGKEGELVAAITSSGGSMYYADSVKGRFTISRDNAKNTVYLQMNSLKPEDTAVYYCAADTIGYHYWYDYWGQGTQVTVSS	low polyreactivity
QVQLVESGGGLVQAGGSLRLSCAASGRIFTTNAMGWYRQAPGKERELVAAITYSGGTTYYADSVKGRFTISRDNAKNTVYLQLNSLNPEDTAVYYCAADVKFSTPYDYWGQGSQVTVSS	low polyreactivity
QVQLVESGGGLVQAGGSLRLSCAASGRIFTTYAMGWYRQAPGKERELVATITTTDTRTYADSVKGRFTISRDNAKNTVYLQMNSLKPEDTAVYYCAKDRLNKGRYYRAASDYWGQGTQVTVSS	low polyreactivity
QVQLVESGGGLVQAGGSLRLSCAASGRIFTVNAMGGYRQAPGKERELVAAITFSGANTYYADSVKGRFTISRDNAKNTVFLQMNSLKPEDTAVYYCAGDPPNGAEYYWGQGTQVTVSS	high polyreactivity
QVQLVESGGGLVQAGGSLRLSCAASGRIFTVYAMGWYRQAPGKERELVAAISGRGGRTYYADSVKGRFTISRDNAKNTVYLQMNSLKPEDTAVYYCNADTLTLTRPDGDIHTVWMDYWGQGTQVTVSS	low polyreactivity
QVQLVESGGGLVQAGGSLRLSCAASGRIFTVYAMGWYRQAPGKERELVAAISSSGGSTYYADSLKGRFTISRDNAKNSVFLQMNSLKPEDTAVYYCAKPRTYDKDKYDYWGQCTQVTVSS	high polyreactivity
QVQLVESGGGLVQAGGSLRLSCAASGRIFTVYAMGWYRQAPGKERELVAAITRGGGGTYYADSVKGRFTISRDNAKNTVYFQMNSLKPEETAVYYCAAAYRGDRWSYRVDYWGQGTQVTVSS	high polyreactivity
QVQLVESGGGLVQAGGSLRLSCAASGRIFTWYAKGWYRQAPGKERELVAAISWSGGRTYYADSVKGRFTISRDNAKNTVYLQMNSLKPEDTAVYYCNAVPSVRWRYDYWGQGTQVTVSS	high polyreactivity
QVQLVESGGGLVQAGGSLRLSCAASGRIFTYDAMGWYRPAPGKERELLATITSGGSTNYADSVKGRFTISRDNAMNTVYLQMNSLKPEDTAVDYCATRKYRVPRSYYWGQGTQVTVSS	high polyreactivity
QVQLVESGGGLVQAGGSLRLSCAASGRIFTYNAMGGYRQAPGKESEFVAAISSGGSTTYADSVKGRFTISRDNAKNTVYLQMISLKPEDTAVYYCAARGWRFAIIQYEYWGQGTQVTVSS	low polyreactivity
QVQLVESGGGLVQAGGSLRLSCAASGRIFTYYAMGWYRQAPGKERELVAAISSGGSTYYADSVKGRFTISRDNAKNTVYLQMNSLKPEDTAVYYCAADSIYYFPYDYWGQGTQVTVSS	high polyreactivity
